Experimental data: the supplement of paper PMC10126150
± gives the standard deviation of the averaged measurements.

tested on: ATP; assay: switch fluorescence ratio, 500 uM ATP over buffer (Cy3 cluster intensity, sum of 5 cycles each) (fold (ratio)); higher = stronger signal-on switching upon ATP binding; sequences stand for … in TCGTCGGCAGCGTCAGATGTGTATAAGAGACAGTTTTTTTTTTTTTTTTTTTTTTTTT…TC; conditions: aptamer strand: ATP DNA aptamer (quencher-CACCTGGGGGAGTATTGCGGAGGAAGG + anchor), 100 nM annealed; ATP concentration: 500 uM
Method in brief: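 After annealing to 100 nM quencher-labelled ATP aptamer, Cy3-labelled switching-strand clusters on a modified Illumina MiSeq flow-cell were imaged in selection buffer. A second image followed after 15 min with 500 uM ATP at 22 °C, and five such buffer/ATP cycles were done, each separated by NaOH stripping and re-annealing. The fluorescence ratio, averaged per switch-domain sequence, is summed target-cycle over summed buffer-cycle Cy3 intensity per cluster, with clusters outside 100-1000 RFU excluded.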
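Further: ATP exposure 15 min at 22 °C before imaging.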

Sequence	switch fluorescence ratio
TAGGGAAGGT	1.01 ± 0.034
TAGGGAGAGG	0.9871 ± 0.0049
TAGGGAGGCA	1.01 ± 0.028
TAGGGAGGGG	0.973 ± 0.028
TAGGGATAG	1.01 ± 0.015
TAGGGATTCC	1.014 ± 0.0079
TAGGGCAGTA	0.99 ± 0.046
TAGGGCATAT	1.1 ± 0.073
TAGGGCCTTT	0.986 ± 0.023
TAGGGCGTGC	0.9973 ± 0.0061
TAGGGCGTTC	1.02 ± 0.079
TAGGGGAACG	0.959 ± 0.0096
TAGGGGACAG	1.03 ± 0.058
TAGGGGAGTA	0.9792 ± 0.0068
TAGGGGAGTT	0.978 ± 0.04
TAGGGGATAC	1.06 ± 0.01
TAGGGGATTT	1 ± 0.042
TAGGGGCTTG	1.014 ± 0.0011
TAGGGGGAGA	1.06 ± 0.043
TAGGGGGCGC	1.02 ± 0.039
TAGGGGTCGT	1 ± 0.02
TAGGGGTTCA	1.013 ± 0.002
TAGGGTAGTG	1.01 ± 0.021
TAGGGTATTT	0.987 ± 0.023
TAGGGTCATA	1.04 ± 0.077

Sequence	switch fluorescence ratio
TAGGGTCTGG	0.991 ± 0.04
TAGGGTGAGC	1.02 ± 0.019
TAGGGTGTGC	1 ± 0.037
TAGGGTGTTT	0.993 ± 0.034
TAGGGTTCAG	0.993 ± 0.029
TAGGGTTGTA	0.991 ± 0.04
TAGGTAATAT	1.02 ± 0.036
TAGGTATTGA	0.987 ± 0.024
TAGGTCCTTT	1.02 ± 0.02
TAGGTCGCCG	1 ± 0.044
TAGGTGACGG	0.991 ± 0.021
TAGGTGCCTG	1.07 ± 0.03
TAGGTGCTGG	1.04 ± 0.07
TAGGTGGGGA	1.01 ± 0.023
TAGGTGGGTT	0.982 ± 0.041
TAGGTTAAAG	1.01 ± 0.027
TAGGTTATGC	0.974 ± 0.036
TAGGTTGTCA	1.04 ± 0.024
TAGGTTGTCG	0.973 ± 0.077
TAGGTTTCAT	1.01 ± 0.014
TAGGTTTTGG	0.989 ± 0.035
TAGGTTTTTC	1.02 ± 0.078
TAGTAAATAT	1.006 ± 0.0041
TAGTAAGAGG	1 ± 0.013
TAGTAGAAAG	1.002 ± 0.0032

Sequence	switch fluorescence ratio
TAGTAGACGA	0.982 ± 0.034
TAGTAGCTTT	1.2 ± 0.31
TAGTAGGAGG	0.9721 ± 0.0061
TAGTAGGCGC	0.968 ± 0.035
TAGTAGTGGG	1.01 ± 0.022
TAGTAGTTGT	1 ± 0.013
TAGTATAGGC	1.14 ± 0.17
TAGTATAGTT	0.98 ± 0.016
TAGTATTTAG	1.024 ± 0.00096
TAGTCATTAC	1.12 ± 0.12
TAGTCCGGGC	1 ± 0.076
TAGTCTATTT	0.977 ± 0.02
TAGTCTGTGG	0.993 ± 0.033
TAGTGAAAGT	1.007 ± 0.0071
TAGTGAGAGC	1 ± 0.058
TAGTGAGGCT	0.996 ± 0.01
TAGTGAGGGG	0.979 ± 0.031
TAGTGATTAA	1.02 ± 0.044
TAGTGATTGG	1 ± 0.052
TAGTGCCAGA	1.01 ± 0.012
TAGTGCGATT	1.02 ± 0.015
TAGTGCTTTT	1.01 ± 0.025
TAGTGGTTTT	0.975 ± 0.02
TAGTGTGGGA	1 ± 0.043
TAGTGTGTAT	0.9516 ± 0.0088

Sequence	switch fluorescence ratio
TAGTGTGTGA	1.02 ± 0.014
TAGTTACACA	1.04 ± 0.035
TAGTTAGAAG	1.08 ± 0.13
TAGTTCACGG	0.9991 ± 0.0073
TAGTTCGACT	1.004 ± 0.0091
TAGTTCGTAT	0.986 ± 0.0099
TAGTTCTGAG	0.998 ± 0.006
TAGTTGAGAA	0.9851 ± 0.0075
TAGTTGCTTG	1.03 ± 0.054
TAGTTGGCAG	0.9773 ± 0.0054
TAGTTGGCCC	1.006 ± 0.0034
TAGTTGGGAG	0.973 ± 0.012
TAGTTGTAAG	0.994 ± 0.02
TAGTTTATGT	1.012 ± 0.0056
TAGTTTTAGA	0.98478 ± 9.2e-05
TAGTTTTTCA	1.01 ± 0.039
TAGTTTTTGG	0.994 ± 0.032
TATAAAAGGC	0.978 ± 0.045
TATAAACTGT	0.993 ± 0.015
TATAAAGAGA	0.9978 ± 0.0057
TATAAAGCGG	1.03 ± 0.048
TATAAAGTTG	1.01 ± 0.062
TATAACGGGA	1.05 ± 0.027
TATAAGAGTT	1.02 ± 0.035
TATAAGTTTT	0.9823 ± 0.0096
